Test results from IntAct's records for PubMed 17167418.

B1: Synaptotagmin-2 (Mus musculus), P46097 (parent)
chain: MRNIFKRNQEPNVAPATTTATMPLAPVAPADNSTESTGPGESQEDMFAKLKEKFFNEINKIPLPPWALIAMAVVAGLLLLTCCFCICKKCCCKKKKNKKEKGKGMKNAMNMKDMKGGQDDDDAETGLTEGEGEGEEEKEPENLGKLQFSLDYDFQANQLTVGVLQAAELPALDMGGTSDPYVKVFLLPDKKKKYETKVHRKTLNPAFNETFTFKVPYQELAGKTLVMAIYDFDRFSKHDIIGEVKVPMNTVDLGQPIEEWRDLQGGEKEEPEKLGDICTSLRYVPTAGKLTVCILEAKNLKKMDVGGLSDPYVKIHLMQNGKRLKKKKTTVKKKTLNPYFNESFSFEIPFEQIQKVQVVVTVLDYDKLGKNEAIGKIFVGSNATGTELRHWSDMLANPRRPIAQWHSLKPEEEVDALLGKNK

Variants of: B1
Settings: with bxb_clobo botB

| Variant | effect of a mutation on the interaction |
| --- | --- |
| F54A | disrupting interaction strength |
| F47A | disrupting interaction strength |
| F55A | disrupting interaction strength |
